{"source": "patent US9822156B2", "about": "“Amyloid beta expression constructs and uses therefor” (Whitehead Institute for Biomedical Research, priority 2014, dated 2017)", "molecules": {"B1": {"name": "E22_deletion: yeast construct, four copies of Aβ42 with E22 deleted, SEQ ID NO:79 (protein)", "chain": "MRFPSIFTAVLFAASSALAAPVNTTTEDETAQIPAEAVIGYLDLEGDFDVAVLPFSNSTNNGLLFINTTIASIAAKEEGVSLDKREAEADAEFRHDSGYEVHHQKLVFFADVGSNKGAIIGLMVGGVVIAKREAEAEADAEFRHDSGYEVHHQKLVFFADVGSNKGAIIGLMVGGVVIAKREADAEADAEFRHDSGYEVHHQKLVFFADVGSNKGAIIGLMVGGVVIAKREADAEADAEFRHDSGYEVHHQKLVFFADVGSNKGAIIGLMVGGVVIA"}, "B2": {"name": "Arctic: yeast construct, four copies of Aβ42 E22G, SEQ ID NO:75 (protein)", "chain": "MRFPSIFTAVLFAASSALAAPVNTTTEDETAQIPAEAVIGYLDLEGDFDVAVLPFSNSTNNGLLFINTTIASIAAKEEGVSLDKREAEADAEFRHDSGYEVHHQKLVFFAGDVGSNKGAIIGLMVGGVVIAKREAEAEADAEFRHDSGYEVHHQKLVFFAGDVGSNKGAIIGLMVGGVVIAKREADAEADAEFRHDSGYEVHHQKLVFFAGDVGSNKGAIIGLMVGGVVIAKREADAEADAEFRHDSGYEVHHQKLVFFAGDVGSNKGAIIGLMVGGVVIA"}, "B3": {"name": "Arctic_I31E: yeast construct, four copies of Aβ42 E22G/I31E, SEQ ID NO:77 (protein)", "chain": "B2 chain with I120E, I170E, I220E, I270E"}, "B4": {"name": "Dutch: yeast construct, four copies of Aβ42 E22Q, SEQ ID NO:71 (protein)", "chain": "B2 chain with G111Q, G161Q, G211Q, G261Q"}, "B5": {"name": "Aβ42_Arctic (E22G): lentiviral construct, insulin signal peptide fused to Aβ42 E22G, SEQ ID NO:17 (protein)", "chain": "MALWMRLLPLLALLALWGPDPAAADAEFRHDSGYEVHHQKLVFFAGDVGSNKGAIIGLMVGGVVIA"}, "B6": {"name": "Aβ42_Arc/I31E: lentiviral construct, insulin signal peptide fused to Aβ42 E22G/I31E, SEQ ID NO:23 (protein)", "chain": "B5 chain with I55E"}}, "key": {"[1]": {"test_system": "Rat embryonic cortical neurons", "details": "lentiviral infection, synapsin promoter, secretory pathway expression", "text": "Rat embryonic cortical neurons were used for expressing Aβ. For generating lentiviral constructs, an expression vector was used with the human synapsin 1 promoter upstream of the inserted insulin signal peptide-Aβ fusion polypeptide transgene (FIG. 9). The encoded fusion polypeptide is processed in the secretory pathway of the neuron, releasing Aβ in the extracellular milieu.\nThe pLV-Aβ constructs along with the psPAX2 packaging vector and pMD2.G envelope vector were transfected in 293T cells using LIPOFECTAMINE® 2000 (Invitrogen) transfection reagent following the manufacture's instruction to generate lentivirus containing the Aβ transgene. The virus was purified using LENTI-X™ Maxi Purification Kit (Clontech) from the supernatant of the transfected 293T cells according to the protocol provided by the manufacturer. Viral titer were determined by using Lentivirus-Associated p24 ELISA Kit (Cell BioLabs).\nRat embryonic cortices were dissected out of embryonic (E18) rat brains, and neurons were enriched in adherent monolayer culture. These cortical neurons were infected with lentiviral preparation harboring an Aβ transgene or a control gene (RFP in the same vector backbone). Infected cultures were harvested to quantify the amount of Aβ in the supernatant and cell lysate by Aβ-specific ELISA 21 days after infection (FIG. 10A). Corresponding cytotoxicity of the infected neurons was measured by quantifying ATP levels using […]™ assay for cell viability (Lonza)."}, "Rat cortical neurons": {"test_system": "Rat cortical neurons", "assay": "Fluorescence microscopy of neuronal survival and morphology after lentiviral Aβ infection (GFP live imaging, Map2 staining)", "type": "cell-based", "details": "for neuronal survival and morphology, GFP live neuron imaging: 21 days after initial infection, identical MOI; for neuronal survival and morphology, Map2 immunostaining: twenty-one days post-infection", "protocol": "Rat cortical neurons were infected with a doxycycline-inducible lentiviral GFP construct. Two days post-infection, the cells were infected again with neuron-specific (synapsin promoter) lentiviral Aβ constructs (i.e., Aβ40, Aβ42, and various mutations). The doubly-infected cells were treated with doxycycline 7 days post-infection to express GFP. After 21 days of the initial infection, live neurons were visualized using fluorescence microscopy to observe the effect of different Aβ variants on neuronal survival and morphology by visualizing neurons expressing GFP in presence of Aβ expressed from the transgenes.\nSimilar observations were also made by immunohistochemical analysis of rat cortical neurons infected with neuron-specific (synapsin promoter) lentiviral Aβ constructs. Twenty-one days post-infection, the neurons were stained with a neuron-specific microtubule-associated protein 2 (Map2) primary antibody (rabbit polyclonal, Millipore) and ALEXA FLUOR® (red fluorophore conjugated) secondary antibody (goat anti-rabbit polyclonal, Life Technologies). Neuronal cells and morphology were visualized to observe the effect of different Aβ mutations using fluorescence microscopy."}, "293T cells": {"test_system": "293T cells", "assay": "TOXILIGHT cytotoxicity assay in stable doxycycline-inducible poly-Aβ 293T cell lines", "type": "cell-based", "details": "72-96 hours following doxycycline induction", "text": "Similar to the poly-Aβ (Aβ40 or Aβ42_1X/4X/6X/8X) expression constructs in yeast (see Example 1), a poly-Aβ toxicity model was developed in mammalian cells. Stable cell lines with chromosomally-integrated tetracycline (doxycycline)-inducible […] transgenes (Aβ42-4X, Aβ42-6X, Aβ40-4X, Aβ40-6X and Aβ42-Arctic-4X) linked to an N-terminal insulin signal peptide were generated (FIGS. 13A-13B). These expression constructs were generated using the pLix402 lentiviral plasmid (FIG. 12). The poly-Aβ constructs were individually transfected into 293T cells along with the lentiviral packaging plasmid psPAX and the viral envelope-expressing plasmid mMD2.G using LIPOFECTAMINE® 2000 (Invitrogen) transfection reagent to generate lentivirus containing the poly-Aβ transgene. The virus was harvested from the supernatant of transfected 293T cells 2 and 3 days post-transfection and subsequently purified and concentrated using the LENTI-X™ Maxi Purification kit (Clontech) according to the manufacturer's instructions.\nTo generate stable cells harboring the expression transgene for the poly-Aβ constructs, 293T cells were infected using POLYBRENE® infection reagent (Sigma Aldrich), which is used to introduce retroviral vectors into mammalian cells. Infected cells were then selected using puromycin (2-10 μg/ml). Infected cells harboring the transgene survive this selection pressure whereas the control cells without the transgene die in 2-3 days. Aliquots of the selected cells were frozen in liquid nitrogen or maintained and propagated for further applications.\nExpression of Aβ peptide from these stable cell lines was measured in the culture supernatant 72-96 hours following doxycycline induction (FIG. 13D). Toxicity was measured 72-96 hours following doxycycline induction using a TOXILIGHT™ cytotoxicity assay (Lonza) as described in Example 2."}, "[2]": {"test_system": "Rat embryonic cortical neurons", "assay": "[…] ATP viability assay in neurons infected with lentiviral poly-Aβ constructs", "type": "cell-based", "details": "three weeks post doxycycline-induction (2 μg/ml)", "text": "Rat embryonic cortical neurons were infected with lentiviral poly-Aβ expression constructs to model poly-Aβ toxicity. Tetracycline (doxycycline)-inducible poly-Aβ (Aβ42-4X, Aβ42-6X, Aβ40-4X, Aβ40-6X, and Aβ42-Arctic-4X) viral constructs described in Example 5 were used to express poly-Aβ constructs in rat cortical neurons. In each expression construct, the poly-Aβ coding sequence is linked to an N-terminal insulin signal peptide. The poly-Aβ expression plasmids were packaged in lentiviral particles, which were generated by 293T cells as described in Example 3.\nRat cortical neurons were enriched from cortices dissected out of embryonic (E18) rat brains and enriched in adherent monolayer culture as described in Example 3. Purified lentiviral preparations at different MOI were used to infect these cortical neurons to express poly-Aβ transgenes. Three days post-infection, expression of poly-Aβ was induced by adding doxycycline (2 μg/ml) to the infected cultures."}, "Yeast cells": {"test_system": "Yeast cells", "assay": "Yeast growth spotting assay of Aβ expression constructs on glucose or galactose media", "type": "cell-based", "details": "galactose-induced expression from 2μ high-copy plasmid pAG425Gal", "text": "The Aβ sequence was codon optimized for expression in yeast. The Aβ expression construct consists of attB Gateway flanking regions at the 5′ and 3′ ends (nucleotides […] (SEQ ID NO:84) and […] (SEQ ID NO:85), respectively) for Gateway cloning of MatαPrepro-Aβ42 sequence. The entire construct was synthesized into pUC57-Kan plasmid and cloned into the Gateway entry vector pDONR221. These constructs were then transferred into the pAG425Galexpression vector by Gateway LR cloning (Alberti et al., “A suite of Gateway cloning vectors for high throughput genetic analysis in Saccharomyces cerevisiae,” Yeast 24:913 (2007)). The GAL1 promoter enables expression of Aβ fusion transgenes under galactose-inducible conditions. The vector has an ampicillin resistant gene for amplification of the vector in E. coli and leucine auxotrophic marker (LEU2) for selection of transformed yeast cells on media lacking leucine (FIG. 2).\nYeast cells transformed with either an expression vector containing galactose-inducible green fluorescent protein (GFP) or a galactose-inducible expression plasmid encoding a yeast mating factor alpha signal sequence/human amyloid beta 1-42 (Aβ42) or 1-40 (Aβ40) or scrambled Aβ42 fusion polypeptide were grown on glucose or galactose containing synthetic media and growth was assessed. Transformed cells were selected in medium lacking leucine. Individual transformants were grown overnight in complete synthetic medium (CSM) lacking leucine with 2% raffinose as the carbon source. Cell concentrations (OD600) were adjusted in a 96-well plate to OD 0.5 or 1. Cells were then 5-fold serially diluted and spotted on SD media containing glucose (uninduced) and galactose (induced). Plates were incubated at 30° C. for 2 days (glucose) or 3 to 4 days (galactose)."}}, "note": "Where a chain is given by its changes, count along the chain named. Names and notes keep the numbering of the source."}
{"molecule": "Aβ42_I31E: lentiviral construct, insulin signal peptide fused to Aβ42 I31E, SEQ ID NO:21", "values": [{"measurement": "cytotoxicity (ATP levels)", "setting": "[1]", "value": "less cytotoxic effects compared to either the wild-type human Aβ42 or the Arctic variation of human Aβ42"}, {"measurement": "neuronal survival and morphology, GFP live neuron imaging", "setting": "Rat cortical neurons", "value": "reduced cytotoxicity and no significant morphological distortions of the neurons and neurites"}, {"measurement": "neuronal survival and morphology, Map2 immunostaining", "setting": "Rat cortical neurons", "value": "reduced cytotoxicity and had no significant effects on the neuronal morphology"}]}
{"molecule": "Aβ42-4X: doxycycline-inducible construct, insulin signal peptide and four copies of Aβ42, SEQ ID NO:35", "values": [{"measurement": "Aβ peptide-mediated cytotoxic effect (adenylate kinase release), rank order", "setting": "293T cells", "value": "Aβ42-6X≧Aβ42-Arctic-4X≧Aβ42-4X≧AB40-6X≧Aβ40-4X"}, {"measurement": "cytotoxicity (viability by ATP levels)", "setting": "[2]", "value": "profound cytotoxicity compared to Aβ40-4X"}]}
{"molecule": "Aβ42 (1X): yeast expression construct, mating factor alpha prepro sequence with one copy of Aβ42, SEQ ID NO:51", "values": [{"measurement": "toxicity (inhibition of yeast cell growth) upon expression", "setting": "Yeast cells", "value": "not toxic"}]}
{"molecule": "Aβ40-4X: doxycycline-inducible construct, insulin signal peptide and four copies of Aβ40, SEQ ID NO:41", "values": [{"measurement": "Aβ peptide-mediated cytotoxic effect (adenylate kinase release), rank order", "setting": "293T cells", "value": "Aβ42-6X≧Aβ42-Arctic-4X≧Aβ42-4X≧AB40-6X≧Aβ40-4X"}]}
{"molecule": "Aβ42-6X: doxycycline-inducible construct, insulin signal peptide and six copies of Aβ42, SEQ ID NO:39", "values": [{"measurement": "Aβ peptide-mediated cytotoxic effect (adenylate kinase release), rank order", "setting": "293T cells", "value": "Aβ42-6X≧Aβ42-Arctic-4X≧Aβ42-4X≧AB40-6X≧Aβ40-4X"}]}
{"molecule": "AB40-6X: doxycycline-inducible construct, insulin signal peptide and six copies of Aβ40, SEQ ID NO:43", "values": [{"measurement": "Aβ peptide-mediated cytotoxic effect (adenylate kinase release), rank order", "setting": "293T cells", "value": "Aβ42-6X≧Aβ42-Arctic-4X≧Aβ42-4X≧AB40-6X≧Aβ40-4X"}]}
{"molecule": "B1", "values": [{"measurement": "toxicity (inhibition of yeast cell growth) upon expression", "setting": "Yeast cells", "value": "profound toxicity"}]}
{"molecule": "B2", "values": [{"measurement": "toxicity (inhibition of yeast cell growth) upon expression", "setting": "Yeast cells", "value": "profound toxicity"}]}
{"molecule": "B3", "values": [{"measurement": "toxicity (inhibition of yeast cell growth) upon expression", "setting": "Yeast cells", "value": "significantly lower amount of toxicity"}]}
{"molecule": "B4", "values": [{"measurement": "toxicity (inhibition of yeast cell growth) upon expression", "setting": "Yeast cells", "value": "profound toxicity"}]}
{"molecule": "B5", "values": [{"measurement": "cytotoxicity (ATP levels)", "setting": "[1]", "value": "more toxic effect compared to the wild-type human Aβ42"}, {"measurement": "neuronal survival and morphology, GFP live neuron imaging", "setting": "Rat cortical neurons", "value": "caused neuronal death and adversely affected neurite outgrowth and structures"}, {"measurement": "neuronal survival and morphology, Map2 immunostaining", "setting": "Rat cortical neurons", "value": "profound cytotoxicity, resulting in massive neuronal loss and distorted neurite structures and outgrowth"}]}
{"molecule": "B6", "values": [{"measurement": "cytotoxicity (ATP levels)", "setting": "[1]", "value": "less cytotoxic effects compared to either the wild-type human Aβ42 or the Arctic variation of human Aβ42"}, {"measurement": "neuronal survival and morphology, GFP live neuron imaging", "setting": "Rat cortical neurons", "value": "reduced cytotoxicity and no significant morphological distortions of the neurons and neurites"}, {"measurement": "neuronal survival and morphology, Map2 immunostaining", "setting": "Rat cortical neurons", "value": "reduced cytotoxicity and had no significant effects on the neuronal morphology"}]}
